These results are taken from PMC7243271 (Biochemistry, 2019).

For data set [1], the target named is Nup358-min (residues 2147–2240 of human Nup358) (human, UniProt P49792 2147-2240). Nature of the data set: SEC-MALS. (SEC sorts molecules by how far they enter the pores of the column.)
Data set [2] deals with the molecule itself. Nature of the data set: SEC-MALS.

B1: KLC2^TPR (residues 196–480 of mouse kinesin-1 light chain 2 isoform 1) (domain or fragment, UniProt O88448 196-480, looked up)
chain: RLRTLHNLVIQYASQGRYEVAVPLCKQALEDLEKTSGHDHPDVATMLNILALVYRDQNKYKDAAHLLNDALAIREKTLGKDHPAVAATLNNLAVLYGKRGKYKEAEPLCKRALEIREKVLGKFHPDVAKQLSNLALLCQNQGKAEEVEYYYRRALEIYATRLGPDDPNVAKTKNNLASCYLKQGKYQDAETLYKEILTRAHEKEFGSVNGENKPIWMHAEEREESKDKRRDRRPMEYGSWYKACKVDSPTVNTTLRTLGALYRPEGKLEAAHTLEDCASRSRKQG
By stoichiometry N is commonly meant the number of molecules, sites or subunits per partner or assembly. In the case of B1, the “stoichiometry N” value in data set [1] amounted to 1.

B2: Nup358-KLC2-fusion protein (other, human | mouse, UniProt P49792 2147-2240, looked up)
chain: LDIPLQTPHKLVDTGRAAKLIQRAEEMKSGLKDFKTFLTNDQTKVTEEENKGSGTGAAGASDTTIKPNPENTGPTLEWDNYDLREDALDDSVSSRLRTLHNLVIQYASQGRYEVAVPLCKQALEDLEKTSGHDHPDVATMLNILALVYRDQNKYKDAAHLLNDALAIREKTLGKDHPAVAATLNNLAVLYGKRGKYKEAEPLCKRALEIREKVLGKFHPDVAKQLSNLALLCQNQGKAEEVEYYYRRALEIYATRLGPDDPNVAKTKNNLASCYLKQGKYQDAETLYKEILTRAHEKEFGSVNGENKPIWMHAEEREESKDKRRDRRPMEYGSWYKACKVDSPTVNTTLRTLGALYRPEGKLEAAHTLEDCASRSRKQG
For the molecule B2, in data set [2], the “stoichiometry N” value amounted to 2.
